Results taken from patent EP4477673A1, “IMMUNOCONJUGATE AND USE THEREOF” (priority 2022, dated 2023).
Residue numbers refer to the chain shown, from its start. Names may count otherwise. Values belong to the binder of their own block, whether it stands above or below them.

Tests used:
human PD-1 = human PD-1 (human, UniProt Q15116 25-288); test: cell-based or functional assay
[1] = target: Human PD-1 antigen protein (Sino Biological, 10377-H08H) (human, UniProt Q15116 25-167); test: SPR Biacore 8K, fusion protein captured by anti-human IgG (Fc), human PD-1 as analyte
Sequence of Human PD-1 antigen protein (Sino Biological, 10377-H08H) (Q15116 25-167 limits assumed): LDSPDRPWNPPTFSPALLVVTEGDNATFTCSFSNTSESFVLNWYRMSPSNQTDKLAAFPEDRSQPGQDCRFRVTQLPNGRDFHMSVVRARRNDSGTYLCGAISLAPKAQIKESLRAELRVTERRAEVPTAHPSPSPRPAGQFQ

Sequence of human PD-1 (Q15116 25-288 limits assumed): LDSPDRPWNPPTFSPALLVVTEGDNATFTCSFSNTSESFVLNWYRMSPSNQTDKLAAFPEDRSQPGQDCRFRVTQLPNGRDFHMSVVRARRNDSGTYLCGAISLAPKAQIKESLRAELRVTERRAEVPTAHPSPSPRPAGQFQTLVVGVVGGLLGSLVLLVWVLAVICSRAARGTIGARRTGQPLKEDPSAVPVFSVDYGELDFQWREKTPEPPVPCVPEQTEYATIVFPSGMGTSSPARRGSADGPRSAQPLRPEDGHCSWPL

B1: A-N88D-M26 (Fc fusion)
chain (part 1 of 2): EVQLVESGGGLVQPGGSLRLSCAASGLTFSSYSMSWYRQAPGKGRELVAIISGSGGITHYVDSVKGRFTISRDNAKNTLYLQMRSLRAEDTAVYYCRAVSDWEDYWGQGTQVTVSS
chain (part 2 of 2): GGGGSGGGGSGGGGSAPASSSTKKTQLQLEHLLLDLQMILQGISNYKNPKLTRMLTAKFYMPKKATELKHLQCLEEELKPLEEVLQGAQSKNFHLRPRDLISDINVIVLELKGSETTFMCEYADETATIVEFLNRWITFAQSIISTLT
chain: B1 chain (part 1 of 2)
notes: not shown: IgG1 hinge (C220S) + Fc Knob chain as in A-N88D; IgG1 hinge (C220S) + Fc Hole chain as in A-N88D
M07e-hPD-1 cell proliferation ratio (%) at 0.0001 nM (human PD-1): 3.7% | M07e-hPD-1 cell proliferation ratio (%) at 0.001 nM (human PD-1): 4.8% | M07e-hPD-1 cell proliferation ratio (%) at 0.01 nM (human PD-1): 9.3% | M07e-hPD-1 cell proliferation ratio (%) at 0.1 nM (human PD-1): 10.7% | M07e-hPD-1 cell proliferation ratio (%) at 1 nM (human PD-1): 23.2% | M07e-hPD-1 cell proliferation ratio (%) at 10 nM (human PD-1): 37% | M07e-hPD-1 cell proliferation ratio (%) at 100 nM (human PD-1): 43.1% | M07e-hPD-1 cell proliferation ratio (%) at 1000 nM (human PD-1): 54.4% | Kd [1]: 53.1 nM | koff [1]: 0.00948 s⁻¹ | kon [1]: 179000 M⁻¹ s⁻¹

B4: A-N88D-M15 (Fc fusion)
chain (part 1 of 2): B1 chain (part 1 of 2) with S31D
chain (part 2 of 2): B1 chain (part 2 of 2)
chain: B1 chain (part 1 of 2) with S31D
notes: as for B1
M07e-hPD-1 cell proliferation ratio (%) at 0.0001 nM (human PD-1): 8.9% | M07e-hPD-1 cell proliferation ratio (%) at 0.001 nM (human PD-1): 4.1% | M07e-hPD-1 cell proliferation ratio (%) at 0.01 nM (human PD-1): 7% | M07e-hPD-1 cell proliferation ratio (%) at 0.1 nM (human PD-1): 17% | M07e-hPD-1 cell proliferation ratio (%) at 1 nM (human PD-1): 32.9% | M07e-hPD-1 cell proliferation ratio (%) at 10 nM (human PD-1): 41.6% | M07e-hPD-1 cell proliferation ratio (%) at 100 nM (human PD-1): 54.9% | M07e-hPD-1 cell proliferation ratio (%) at 1000 nM (human PD-1): 47.7% | Kd [1]: 29.3 nM | koff [1]: 0.00706 s⁻¹ | kon [1]: 241000 M⁻¹ s⁻¹

More lines, now with the values ahead:

M07e-hPD-1 cell proliferation ratio (%) at 0.0001 nM (human PD-1): 7.5% | M07e-hPD-1 cell proliferation ratio (%) at 0.001 nM (human PD-1): 4.9% | M07e-hPD-1 cell proliferation ratio (%) at 0.01 nM (human PD-1): 4.9% | M07e-hPD-1 cell proliferation ratio (%) at 0.1 nM (human PD-1): 9.3% | M07e-hPD-1 cell proliferation ratio (%) at 1 nM (human PD-1): 21.1% | M07e-hPD-1 cell proliferation ratio (%) at 10 nM (human PD-1): 31.9% | M07e-hPD-1 cell proliferation ratio (%) at 100 nM (human PD-1): 39.5% | M07e-hPD-1 cell proliferation ratio (%) at 1000 nM (human PD-1): 60% | Kd [1]: 74.3 nM | koff [1]: 0.0102 s⁻¹ | kon [1]: 137000 M⁻¹ s⁻¹
B2: A-N88D-M27 (Fc fusion)
chain (part 1 of 2): B1 chain (part 1 of 2) with E103Q
chain (part 2 of 2): B1 chain (part 2 of 2)
chain: B1 chain (part 1 of 2) with E103Q
notes: as for B1

M07e-hPD-1 cell proliferation ratio (%) at 0.0001 nM (human PD-1): 7.2% | M07e-hPD-1 cell proliferation ratio (%) at 0.001 nM (human PD-1): 6.3% | M07e-hPD-1 cell proliferation ratio (%) at 0.01 nM (human PD-1): 9.4% | M07e-hPD-1 cell proliferation ratio (%) at 0.1 nM (human PD-1): 7.6% | M07e-hPD-1 cell proliferation ratio (%) at 1 nM (human PD-1): 12.4% | M07e-hPD-1 cell proliferation ratio (%) at 10 nM (human PD-1): 19.1% | M07e-hPD-1 cell proliferation ratio (%) at 100 nM (human PD-1): 34.4% | M07e-hPD-1 cell proliferation ratio (%) at 1000 nM (human PD-1): 51.3% | Kd [1]: 134 nM | koff [1]: 0.0198 s⁻¹ | kon [1]: 148000 M⁻¹ s⁻¹
B3: A-N88D-M28 (Fc fusion)
chain (part 1 of 2): B1 chain (part 1 of 2) with V61A, E103Q
chain (part 2 of 2): B1 chain (part 2 of 2)
chain: B1 chain (part 1 of 2) with V61A, E103Q
notes: as for B1
